Source: patent US10976314B2, “Device, non-transitory computer-readable storage medium, and method for determining type of target peptide” (SYSMEX CORPORATION, priority 2014, dated 2021)
Read-outs that look alike come from different tables or passages of the source. Peptide text beside a SMILES is read from it.

Legend:
[1] = cited from earlier work; for Isoelectric point pI: Table 1; for Isoelectric point: Table 5
[2] = biological target: human serum albumin (HSA) (Homo sapiens, UniProt P02768); conditions: for b value of Equation (I) (dissociation mode: b<0.241 single, b≥0.241 multiple) / Δλ (maximum layer thickness change amount, second information): peptide concentration per Table 5

| Molecule | Isoelectric point pI [1] | Isoelectric point [1] | Koff (dissociation rate constant, first information) ([2]; pH 6.9) [s⁻¹] | other results |
| --- | --- | --- | --- | --- |
| ACTH partial peptide at the 1-41 positions (GPSYSMEHFRWGKPVGKKRRPVKVYPNGAEDESAEAFPLEF; listed as Homo sapiens) [ACTH41] | 8.3 |  |  |  |
| kininogen (HNLGHGHKHERDQGHGHQR; listed as Homo sapiens) | 8.8 | 8.8 | 0.00493 | b value of Equation (I) (dissociation mode: b<0.241 single, b≥0.241 multiple) ([2]; HSA sensor chip): 1.093; Δλ (maximum layer thickness change amount, second information) ([2]; HSA sensor chip): 0.082 nm |
| brain natriuretic peptide [BNP] | 11 |  |  |  |
| ACTH partial peptide at the 1-24 positions [ACTH24] | 10.6 |  |  |  |
| Lys-decapeptide (KKKKKKKKKK; Synthetic Lys decapeptide) [(Lys) 10] |  | 11 | 0.0002 | b value of Equation (I) (dissociation mode: b<0.241 single, b≥0.241 multiple) ([2]; HSA sensor chip): 0.669; Δλ (maximum layer thickness change amount, second information) ([2]; HSA sensor chip): 0.045 nm |
| His-decapeptide (HHHHHHHHHH; Synthetic His decapeptide) [(His) 10] |  | 7.4 | 0.00073 |  |
| ACTH15: SEQ ID NO: 11, YSMEHFRWGKPVGKK (listed as Homo sapiens) | 10 | 10 | 0.01147 |  |
| fibrinogen α (DEAGSEADHEGTHSTKRGHAKSRPV; listed as Homo sapiens) | 6.3 |  |  |  |
| Amyloid β40 peptide [AB40] | 5.3 | 5.3 |  |  |
| NC(N)=NCCC[C@H](NC(=O)[C@H](Cc1ccccc1)NC(=O)[C@@H]1CCCN1C(=O)[C@H](CO)NC(=O)[C@H](Cc1ccccc1)NC(=O)CNC(=O)[C@@H]1CCCN1C(=O)[C@@H]1CCCN1C(=O)[C@@H](N)CCCN=C(N)N)C(=O)O [Bradykinin] (H-RPPGFSPFR-OH) |  |  | 0.01721 |  |
| (His) 3: HHH |  | 7 | 0.00257 | b value of Equation (I) (dissociation mode: b<0.241 single, b≥0.241 multiple) ([2]; HSA sensor chip): 0.344; Δλ (maximum layer thickness change amount, second information) ([2]; HSA sensor chip): 0.027 nm |
| ACTH partial peptide at the 1-39 positions (SYSMEHFRWGKPVGKKRRPVKVYPNAGENESAEAFPLEF; listed as Homo sapiens) [ACTH39] | 9.3 |  |  | dissociation mode (third information) ([2]; HSA sensor chip, peptide map FIG. 6, peptide 2 μM): multiple dissociation mode |
| ELN 11mer: the 548 to 558th fragments of the amino acid sequence of elastin; SEQ ID NO: 20, GVPGLGVGAGV (listed as Homo sapiens) |  | 5.5 | 0.00016 | b value of Equation (I) (dissociation mode: b<0.241 single, b≥0.241 multiple) ([2]; HSA sensor chip): 0; Δλ (maximum layer thickness change amount, second information) ([2]; HSA sensor chip): 0.043 nm |
| glucagon | 6.8 |  |  |  |
| IS 13mer: the 237 to 249th fragments of the amino acid sequence of HSA; SEQ ID NO: 21, AWAVARLSQRFPK (listed as Homo sapiens) |  | 12 | 0.01708 | b value of Equation (I) (dissociation mode: b<0.241 single, b≥0.241 multiple) ([2]; HSA sensor chip): 0.756; Δλ (maximum layer thickness change amount, second information) ([2]; HSA sensor chip): 0.061 nm |
| histidine eicosa peptide (HHHHHHHHHHHHHHHHHHHH; Synthetic His eicosapeptide) [(His) 20] | 7.6 |  |  |  |
| inter-α-trypsin inhibitor heavy chain 4 (GESRNRNVHSGSTFFKYYLQGAKIPKPEASFS; listed as Homo sapiens) [ITIH4] | 9.8 |  |  |  |
| amyloid β42 peptide [AB42] | 5.3 | 5.3 |  |  |
| dynorphin A (YGGFLRRIRPKLK; listed as Homo sapiens) | 11.7 | 11.7 |  | Koff (dissociation rate constant, first information) ([2]; HSA sensor chip, peptide concentration during measurement per Table 5 (1-1000 μM), 0.1 M sodium phosphate buffer pH 6.9): 0.00617 s⁻¹ |
| arginine decapeptide [(Arg) 10] | 13 |  |  |  |
| Lysozyme (protein, listed as Homo sapiens) KVYGRCELAAAMKRLGLDNFRGYSLGNWVCAAKFESNFNTHATNRNTDGSTDYGILQINSRWWCNDGRTPGSRNLCNIPCSALLSSDTIASVNCAKKIVSDGNGMNAWVAWRKRCKGTDVNAWTRGCRL |  | 9.4 | 0.0066 | b value of Equation (I) (dissociation mode: b<0.241 single, b≥0.241 multiple) ([2]; HSA sensor chip): 0.278; Δλ (maximum layer thickness change amount, second information) ([2]; HSA sensor chip): 0.12 nm |
